Measured values taken from US8163734B2, “Use of a mast cell activation or degranulation blocking agent in the manufacture of a medicament for the treatment of a patient subjected to thrombolyses” (priority 2004, dated 2012).
Entries after “also recorded” stand apart in the source; their conditions may differ.

Experiments:
[1] = system: rat peritoneal mast cells; test: Degranulation of rat peritoneal mast cells ex vivo; format: cell-based
[2] = system: middle cerebral artery occlusion (MCAO) in rats; test: 90 min middle cerebral artery occlusion with r-TPA 10 mg/kg infusion; brains dissected 4.5 h after reperfusion (Example 2); format: in vivo, rat
Protocol: Rats were given 10 mg/kg of r-TPA, which is considered equivalent to the typical dose given to humans in thrombolysis in stroke and myocardial infarction. Two timings of r-TPA were used to investigate in rat brain the hemorrhagic conversion of infarction, the single most serious complication and hazard in clinical thrombolytic therapy. The group termed r-TPA+saline received 1-hour infusiuon of r-TPA starting 5 minutes (10% as bolus) prior to reperfusion after 90 min of middle cerebral artery occlusion (MCAO), whereas the group saline+r-TPA received r-TPA starting 1 hour after the reperfusion after 90 min of MCAO. […] Brains were dissected at 4.5 hours after reperfusion. Areas of hemorrhage were measured by microscopical image analysis on six histological sections cut through the hemispheres and added together (cf. FIG. 3)
The polymorphonuclear leukocytes (neutrophils, shown in bars, left Y-axis, of FIG. 4) were calculated on the section encompassing the basal ganglia, infarct core and penumbra.
They were also treated with 10 mg/kg of r-TPA in a 1-hour infusion starting […] (10% as bolus) before reperfusion, a dose equivalent to that used clinically in thrombolysis of human stroke and myocardial infarction. Brains were dissected at 4.5 hours after reperfusion. The amount of brain edema was measured by quantitating the areas of hemispheres on histological sections with microscopical image analysis.
In the lower panel, the total area of hemorrhagic conversion was quantitated in six sections cut through the hemispheres.

[3] = system: spontaneous intraventricular bleedings; conditions: in vivo; cited from earlier work

Substance: r-TPA: alteplase (recombinant tissue plasminogen activator), a serine protease leading to plasmin formation
- degranulation of rat peritoneal mast cells [1]: degranulated
- neutrophil density ([2]; both r-TPA groups compared to sham-operated rats): significantly increased
- hemorrhage formation in rat brain ([2]; r-TPA 10 mg/kg, started 5 min before or 1 hour after reperfusion, vs sham operated or saline-treated controls): substantial hemorrhage formation; also recorded: significant hemorrhage formation
- increase in total number of neutrophils in the tissue, ischemic hemisphere ([2]; r-TPA infusion): up to 3 fold
- increase in total number of neutrophils in the tissue, non-infarcted hemisphere ([2]; r-TPA infusion): up to 5 fold
- degranulation of cells consistent with mast cell morphology, non-ischemic hemisphere ([2]; r-TPA infusion 5 minutes before reperfusion, 90 minute ischemia): up to 60%
- degranulation of cells consistent with mast cell morphology, ischemic hemisphere ([2]; r-TPA infusion 5 minutes before reperfusion, 90 minute ischemia, up to 50% without r-TPA): up to 70%
- rates of secondary brain hemorrhages [3]: more than doubles
